Assay results published in patent US20220281976A1 (Alector, published 2022).
Numbering of substitutions follows the chain as printed.

T1: mouse CD33 Fc fusion protein (mouse, UniProt Q63994 18-240, limits assumed)
T1 construct: also called mCD33-Fc
T1 sequence: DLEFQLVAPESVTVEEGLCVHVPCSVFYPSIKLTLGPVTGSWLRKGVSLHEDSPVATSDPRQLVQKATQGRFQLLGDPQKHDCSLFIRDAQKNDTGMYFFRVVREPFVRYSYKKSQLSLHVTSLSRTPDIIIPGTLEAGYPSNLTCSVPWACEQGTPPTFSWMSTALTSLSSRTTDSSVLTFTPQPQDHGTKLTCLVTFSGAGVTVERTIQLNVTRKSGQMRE

B1: C-69 (antibody, V domains shown)
VH: EVQLVESGGGLVQPGGSLRLSCAASGFTFSSYWMSWVRQAPGKGLEWVANIKSDGSEKYYVDSVKGRFTISRDNAKNSLYLQMNSLRAEDTAVYYCARAETYQLSSAFDIWGQGTMVTVSS
VL: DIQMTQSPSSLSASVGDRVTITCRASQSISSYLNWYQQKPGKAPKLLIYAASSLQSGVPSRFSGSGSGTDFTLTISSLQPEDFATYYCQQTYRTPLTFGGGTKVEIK
notes: human IgG1
B2: C-72 (antibody, V domains shown)
VH: QVQLVESGGGVVQPGRSLRLSCAASGFTFSSYGMHWVRQAPGKGLEWVAVIWYDGSNKYYADSVKGRFTISRDNSKNTLYLQMNSLRAEDTAVYYCAKEGGTYSDDFDLWGGGTLVTVSS
VL: DIQMTQSPSSVSASVGDRVTITCRASQGISSWLAWYQQKPGKAPKLLIYAASSLQSGVPSRFSGSGSGTDFTLTISSLQPEDFATYYCQQASSFPLTFGGGTKVEIK
notes: human IgG1
B3: C-75 (antibody, V domains shown)
VH: EVQLLESGGGLVQPGGSLRLSCAASGFTFSSYAMSWVRQAPGKGLEWVSAISASGGSTYYADSVKGRFTISRDNSKNTLYLQMNSLRAEDTAVYYCARLHMTGTASSGMDVWGQGTTVTVSS
VL: DIVMTQSPDSLAVSLGERATINCKSSQSVLYSSNNKNYLAWYQQKPGQAPRLLIYGASSRATGIPDRFSGSGSGTDFTLTISRLEPEDFAVYYCQQDYSSPLTFGGGTKVEIK
notes: human IgG1
B4: C-76 (antibody, V domains shown)
VH: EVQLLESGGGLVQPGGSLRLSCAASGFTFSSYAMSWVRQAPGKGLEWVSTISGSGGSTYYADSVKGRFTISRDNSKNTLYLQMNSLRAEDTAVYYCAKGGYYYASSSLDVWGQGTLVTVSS
VL: B3 VL with S99N
notes: human IgG1
B5: C-77 (antibody, V domains shown)
VH: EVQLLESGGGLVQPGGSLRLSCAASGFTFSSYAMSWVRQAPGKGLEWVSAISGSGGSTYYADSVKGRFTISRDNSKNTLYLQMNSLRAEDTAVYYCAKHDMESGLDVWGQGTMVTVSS
VL: B3 VL with M4L, S99V
notes: human IgG1
B6: C-79 (antibody, V domains shown)
VH: QVQLVQSGAEVKKPGASVKVSCKASGYTFTSYYIHWVRQAPGQGLEWMGIINPSGGSTSYAQKFQGRVTMTRDTSTSTVYMELSSLRSEDTAVYYCARVSRQQHSMDVWGQGTTVTVSS
VL: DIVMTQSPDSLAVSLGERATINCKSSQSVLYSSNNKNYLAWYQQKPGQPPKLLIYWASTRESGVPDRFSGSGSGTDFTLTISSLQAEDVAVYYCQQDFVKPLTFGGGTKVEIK
notes: human IgG1
B7: C-7 (antibody, V domains shown)
VH: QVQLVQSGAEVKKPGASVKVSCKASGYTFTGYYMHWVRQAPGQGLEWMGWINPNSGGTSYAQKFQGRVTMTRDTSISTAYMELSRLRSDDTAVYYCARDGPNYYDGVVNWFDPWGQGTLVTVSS
VL: B2 VL with S10T, V11L, G28S, A50D, Q55E, D70E, E81D, S92R, F94Y, L96P
notes: human IgG1
B8: C-84 (antibody, V domains shown)
VH: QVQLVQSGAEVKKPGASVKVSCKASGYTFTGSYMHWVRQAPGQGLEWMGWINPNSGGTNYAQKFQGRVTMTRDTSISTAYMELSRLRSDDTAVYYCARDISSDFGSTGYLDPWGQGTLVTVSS
VL: DIQMTQSPSTLSASVGDRVTITCRASQSISSWLAWYQQKPGKAPKLLIYDASSLESGVPSRFSGSGSGTEFTLTISSLQPDDFATYYCQQVNRYPFTFGGGTKVEIK
notes: human IgG1
B9: C-87 (antibody, V domains shown)
VH: QLQLQESGPGLVKPSETLSLTCTVSGGSISSSSYAWGWIRQPPGKGLEWIGSIYYSGSTYYNPSLKSRVTISVDTSKNQFSLKLSSVTAADTAVYYCARDPLYPLTPYGMDVWGQGTTVTVSS
VL: EIVMTQSPATLSLSPGERATLSCRASQSVSSYLAWYQQKPGQAPRLLIYDASNRATGIPARFSGSGSGTDFTLTISSLEPEDFAVYYCQQLSVFPPTFGGGTKVEIK
notes: human IgG1
B10: C-88 (antibody, V domains shown)
VH: QLQLQESGPGLVKPSETLSLTCTVSGGSISSSSYYWGWIRQPPGKGLEWIGSIYYSGSTYYNPSLKSRVTISVDTSKNQFSLKLSSVTAADTAVYYCARLPIYYDSSGYFDYHGMDVWGQGTTVTVSS
VL: B9 VL with M4L, L91H, S92A, V93N, F94H
notes: human IgG1
B11: C-89 (antibody, V domains shown)
VH: QLQLQESGPGLVKPSETLSLTCTVSGGSISSSSYYWGWIRQPPGKGLEWIGSIYYSGSTYYNPSLKSRVTISVDTSKNQFSLKLSSVTAADTAVYYCAREGPRFDPWGQGTLVTVSS
VL: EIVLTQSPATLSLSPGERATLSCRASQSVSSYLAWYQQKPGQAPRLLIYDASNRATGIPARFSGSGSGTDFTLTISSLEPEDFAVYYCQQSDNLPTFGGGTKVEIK
notes: human IgG1

These binders were tested against T2, human CD33 (human, UniProt P20138 18-364) (assay: cell-based or functional assay).
T2 sequence (P20138 18-364): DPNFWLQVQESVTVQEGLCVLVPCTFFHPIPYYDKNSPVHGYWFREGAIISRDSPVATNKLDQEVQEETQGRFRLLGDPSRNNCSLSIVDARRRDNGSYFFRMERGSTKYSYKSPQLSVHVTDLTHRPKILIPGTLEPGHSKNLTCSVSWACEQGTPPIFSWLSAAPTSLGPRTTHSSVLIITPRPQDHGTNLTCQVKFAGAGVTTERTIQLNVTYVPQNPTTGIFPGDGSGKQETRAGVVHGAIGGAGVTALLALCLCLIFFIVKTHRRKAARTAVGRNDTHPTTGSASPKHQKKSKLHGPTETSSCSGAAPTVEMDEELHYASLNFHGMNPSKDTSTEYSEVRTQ

| Binder | Percent CD33 Surface Expression, DC % CD33 [%] | Percent CD33 Surface Expression, Macrophage % CD33 [%] | Percent CD33 Surface Expression, Monocyte % CD33 [%] |
| --- | --- | --- | --- |
| B1 | 21.7 | 41.8 | 29.3 |
| B2 | 43.4 | 47.5 | 41.8 |
| B3 | 88.7 | – | 85.9 |
| B4 | 85.5 | – | 92.4 |
| B5 | 84.2 | – | 87.6 |
| B6 | 83.1 | – | 91.1 |
| B7 | 66.9 | 97 | 96.5 |
| B8 | 75.9 | – | 90.4 |
| B9 | 28.4 | 47.5 | 36.1 |
| B10 | 18.6 | 41.4 | 28.7 |
| B11 | 19.6 | 41.2 | 25.3 |

Each binder was assayed against T3, human monomeric His tagged CD33 protein (human, UniProt P20138 18-259) (assay: ForteBio BLI or MSD-SET, IgG, monomeric antigen;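 further: BLI: antibodies captured on AHQ sensors, 100 nM antigen association 5 min, dissociation 5 min, 1:1 fit. MSD-SET: antigen fixed at 50 pM, antibody titrated, quadratic fit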).
T3 construct: also called hCD33-His
T3 sequence (P20138 18-259 limits assumed): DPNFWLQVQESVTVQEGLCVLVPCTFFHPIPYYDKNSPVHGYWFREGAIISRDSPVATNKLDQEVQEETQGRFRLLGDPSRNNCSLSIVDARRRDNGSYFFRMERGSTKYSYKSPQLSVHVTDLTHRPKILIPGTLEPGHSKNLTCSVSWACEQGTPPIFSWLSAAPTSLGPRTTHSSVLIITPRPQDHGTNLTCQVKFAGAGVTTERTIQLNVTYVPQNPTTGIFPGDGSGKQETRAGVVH

| Binder | Kd [nM] |
| --- | --- |
| B1 | 22.1 |
| B2 | 7.7 |
| B3 | 4.63 |
| B4 | 13.5 |
| B5 | 11.1 |
| B6 | 11.2 |
| B7 | 3.29 |
| B8 | 62.6 |
| B9 | 7.04 |
| B10 | 2.7 |
| B11 | 4.88 |

Each binder was assayed against T2, human CD33 (assay: flow cytometry, human primary dendritic cells;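 further: binding of anti-CD33 antibodies (10 ug/ml, 1 h on ice) to human primary dendritic cells, detected with a PE-labelled secondary antibody, reported as flow cytometry MFI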).
Protocol: (§1) Initial characterization of CD33 antibodies involved determining their ability to bind CD33 expressed on a CHO cell line, on human primary monocytes, human primary macrophages, human primary dendritic cells, and on human primary T cells. Cells were harvested, plated at 10⁶/ml in a 96 well plate, and incubated in 100 ul PBS containing 2% FBS, 2 mM EDTA and 10 ug/ml Mab and Fc blocking reagent for 1 hour in ice. Cells were washed twice and incubated in 100 ul PBS containing 2% FBS, 2 mM EDTA and 5 ug/ml PE-conjugated secondary antibody for 30 minutes on ice. Cells were washed twice in cold PBS and analyze by flow cytometry on a BD FACS Canto. Data analysis and calculation of MFI values was performed with FlowJo (TreeStar) software version 10.0.7.

| Binder | DC MFI |
| --- | --- |
| B1 | 923 |
| B2 | 742 |
| B3 | 46 |
| B4 | 43 |
| B5 | 43 |
| B6 | 43 |
| B7 | 814 |
| B8 | 55 |
| B9 | 172 |
| B10 | 178 |
| B11 | 203 |

What follows are binders tested against T2, human CD33 (assay: flow cytometry, human primary monocytes;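 further: binding of anti-CD33 antibodies at 10 ug/ml to human primary monocytes, 1 h on ice, detected by PE-labelled secondary antibody, flow cytometry readout as mean fluorescence intensity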).
Design: reference not given here

| Binder | Monocyte MFI |
| --- | --- |
| B1 | 80 |
| B2 | 118 |
| B3 | 686 |
| B4 | 654 |
| B5 | 698 |
| B6 | 815 |
| B7 | 87 |
| B8 | 532 |
| B9 | 971 |
| B10 | 957 |
| B11 | 1120 |

These binders were tested against T2, human CD33 (assay: flow cytometry, human primary macrophages;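 further: binding of CD33 antibodies at 10 µg/ml to human primary macrophages, 1 h on ice, detected with PE-labelled secondary antibody by flow cytometry, reported as MFI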).
Protocol: as §1

| Binder | Macrophage MFI |
| --- | --- |
| B1 | 628 |
| B2 | 657 |
| B3 | 778 |
| B4 | 455 |
| B5 | 493 |
| B6 | 654 |
| B7 | 626 |
| B8 | 313 |
| B9 | 1260 |
| B10 | 1200 |
| B11 | 1420 |

The binders below were run against T4, human CD33 Fc fusion protein (human, UniProt P20138 18-259) (assay: ForteBio BLI or MSD-SET, IgG, avid;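 further: Anti-CD33 IgG affinity by BLI, IgG captured on AHQ sensors with antigen in solution and a one-to-one kinetic fit, or by MSD solution equilibrium titration with quadratic fit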).
T4 construct: also called hCD33-Fc; human CD33/Fc chimera (R&D Systems)
T4 sequence (P20138 18-259 limits assumed): as above
Protocol: The binding affinity of each anti-CD33 antibody was determined by measuring their KD by ForteBio or MSD-SET. […] Briefly, ForteBio affinity measurements were performed by loading IgGs on-line onto AHQ sensors. Sensors were equilibrated off-line in assay buffer for 30 min and then monitored on-line for 60 seconds for baseline establishment. Sensors with loaded IgGs were exposed to 100 nM antigen for 5 minutes, then transferred to assay buffer for 5 min for off-rate measurement. Kinetics were analyzed using the 1:1 binding model.
Solution equilibrium titrations (SET) were performed in PBS+0.1% IgG-Free BSA (PBSF) with antigen held constant at 50 pM and incubated with 3-to 5-fold serial dilutions of antibody starting at 10 nM. Antibodies (20 nM in PBS) were coated onto standard bind MSD-ECL plates overnight at 4° C. or at room temperature for 30 min. Plates were then blocked for 30 min with shaking at 700 rpm, followed by three washes with wash buffer (PBSF+0.05% Tween 20). SET samples were applied and incubated on the plates for 150s with shaking at 700 rpm followed by one wash. Antigen captured on a plate was detected with 250 ng/mL sulfotag-labeled streptavidin in PBSF by incubation on the plate for 3 min. The plates were washed three times with wash buffer and then read on the MSD Sector Imager 2400 instrument using 1× Read Buffer T with surfactant. The percent free antigen was plotted as a function of titrated antibody in Prism and fit to a quadratic equation to extract the KD. To improve throughput, liquid handling robots were used throughout MSD-SET experiments, including SET sample preparation.

| Binder | Kd [nM] |
| --- | --- |
| B1 | 2.94 |
| B2 | 1.77 |
| B3 | 1.04 |
| B4 | 3.01 |
| B5 | 2.15 |
| B6 | 2.28 |
| B7 | 1.01 |
| B8 | 7.39 |
| B9 | 1.93 |
| B10 | 0.734 |
| B11 | 1.16 |

Each binder was assayed against T4, human CD33 Fc fusion protein (assay: RBC adhesion to plate-bound CD33-Fc; antibody 0.5 ug/ml;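 further: Plate-coated CD33-Fc preincubated 1 h with antibody, then red blood cells added for 1 h at room temperature, adherent cells lysed and quantified via peroxidase activity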).

| Binder | Percent RBC Binding to CD33 [%] |
| --- | --- |
| B1 | 11.3 |
| B2 | 36.2 |
| B3 | 72.6 |
| B4 | 85.5 |
| B5 | 61.4 |
| B6 | 45.7 |
| B7 | 122 |
| B8 | 96.8 |
| B9 | 29.4 |
| B10 | 39.4 |
| B11 | 20.6 |

These binders were tested against T4, human CD33 Fc fusion protein (assay: RBC adhesion to plate-bound CD33-Fc; antibody 1.0 ug/ml;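 further: red blood cells adhering to plate-coated CD33-Fc after 1 h antibody pretreatment, then 1 h at room temperature, bound cells read as peroxidase activity after lysis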).
Protocol: Briefly, 5 ug/ml CD33-Fc was coated overnight at RT in 96 well Immunolon plates, then washed with PBS, blocked for one hour with binding buffer (PBS containing %0.25 BSA 1 mM CaCl₂). CD33 antibodies (0.5 ug/ml or 1.0 ug/ml) or Fabs (25 ug/ml) were bound for one hour at RT with gentle rocking. After removal of unbound antibody, red blood cells were added to each well at a concentration of 3.0×10⁶ cells per ml and incubated at RT for one hour. Unbound RBCs were then carefully washed off 3× with PBS, and water was added to each well for hypotonic lysis of bound RBCs. The plate was transferred to −80° C. for 10 minutes, followed by 37° C. for 15 minutes. Bound RBCs were detected by peroxidase activity, followed by 2N sulfuric acid to stop the reaction.

| Binder | Percent RBC Binding to CD33 [%] |
| --- | --- |
| B1 | 8.95 |
| B2 | 18.9 |
| B3 | 67 |
| B4 | 87.7 |
| B5 | 77.7 |
| B6 | 83.5 |
| B7 | 108 |
| B8 | 103 |
| B9 | 9.5 |
| B10 | 10.9 |
| B11 | 10.5 |

Each binder was assayed against T1, mouse CD33 Fc fusion protein (assay: ForteBio BLI or MSD-SET).

| Binder | binding result |
| --- | --- |
| B1 | no binding (tested: 100 nM) |
| B2 | no binding (tested: 100 nM) |
| B3 | no binding (tested: 100 nM) |
| B4 | no binding (tested: 100 nM) |
| B5 | no binding (tested: 100 nM) |
| B6 | no binding (tested: 100 nM) |
| B7 | no binding (tested: 100 nM) |
| B8 | no binding (tested: 100 nM) |
| B9 | no binding (tested: 100 nM) |
| B10 | no binding (tested: 100 nM) |
| B11 | no binding (tested: 100 nM) |

Each binder was assayed against T2, human CD33 (assay: flow cytometry, human primary T cells;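 further: binding of anti-CD33 antibodies at 10 ug/ml to human primary T cells, 1 h on ice, detected with PE-labelled secondary antibody, read as flow cytometry MFI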).
Protocol: as §1

| Binder | T cell MFI |
| --- | --- |
| B1 | 318 |
| B2 | 330 |
| B3 | 399 |
| B4 | 185 |
| B5 | 263 |
| B6 | 228 |
| B7 | 52.5 |
| B8 | 95.8 |
| B9 | 246 |
| B10 | 204 |
| B11 | 109 |
